Results published in US20250262167A1, “COMPOUNDS, TARGETS AND PATHWAYS FOR MACROPHAGE MODULATION” (Massachusetts Institute of Technology, priority 2020, published 2025).

B1: EGF: ligand of novel pathway (protein, UniProt P01133 23-1207, looked up)
Pro-epidermal growth factor: PQHWSCPEGTLAGNGNSTCVGPAPFLIFSHGNSIFRIDTEGTNYEQLVVDAGVSVIMDFHYNEKRIYWVDLERQLLQRVFLNGSRQERVCNIEKNVSGMAINWINEEVIWSNQQEGIITVTDMKGNNSHILLSALKYPANVAVDPVERFIFWSSEVAGSLYRADLDGVGVKALLETSEKITAVSLDVLDKRLFWIQYNREGSNSLICSCDYDGGSVHISKHPTQHNLFAMSLFGDRIFYSTWKMKTIWIANKHTGKDMVRINLHSSFVPLGELKVVHPLAQPKAEDDTWEPEQKLCKLRKGNCSSTVCGQDLQSHLCMCAEGYALSRDRKYCEDVNECAFWNHGCTLGCKNTPGSYYCTCPVGFVLLPDGKRCHQLVSCPRNVSECSHDCVLTSEGPLCFCPEGSVLERDGKTCSGCSSPDNGGCSQLCVPLSPVSWECDCFPGYDLQLDEKSCAASGPQPFLLFANSQDIRHMHFDGTDYGTLLSQQMGMVYALDHDPVENKIYFAHTALKWIERANMDGSQRERLIEEGVDVPEGLAVDWIGRRFYWTDRGKSLIGRSDLNGKRSKIITKENISQPRGIAVHPMAKRLFWTDTGINPRIESSSLQGLGRLVIASSDLIWPSGITIDFLTDKLYWCDAKQSVIEMANLDGSKRRRLTQNDVGHPFAVAVFEDYVWFSDWAMPSVMRVNKRTGKDRVRLQGSMLKPSSLVVVHPLAKPGADPCLYQNGGCEHICKKRLGTAWCSCREGFMKASDGKTCLALDGHQLLAGGEVDLKNQVTPLDILSKTRVSEDNITESQHMLVAEIMVSDQDDCAPVGCSMYARCISEGEDATCQCLKGFAGDGKLCSDIDECEMGVPVCPPASSKCINTEGGYVCRCSEGYQGDGIHCLDIDECQLGEHSCGENASCTNTEGGYTCMCAGRLSEPGLICPDSTPPPHLREDDHHYSVRNSDSECPLSHDGYCLHDGVCMYIEALDKYACNCVVGYIGERCQYRDLKWWELRHAGHGQQQKVIVVAVCVVVLVMLLLLSLWGAHYYRTQKLLSKNPKNPYEESSRDVRSRRPADTEDGMSSCPQPWFVVIKEHQDLKNGGQPVAGEDGQAADGSMQPTSWRQEPQLCGMGTEQGCWIPVSSDKGSCPQVMERSFHMPSYGTQTLEGGVEKPHSLLSANPLWQQRALDPPHQMELTQ
modifications: Pro-epidermal growth factor
notes: ligand of novel pathway
B2: IL-4: classic M2 stimulus (protein, UniProt P05112 25-153, looked up)
Interleukin-4: HKCDITLQEIIKTLNSLTEQKTLCTELTVTDIFAASKNTTEKETFCRAATVLRQFYSHHEKDTRCLGATAQQFHRHKQLIRFLKRLDRNLWGLAGLNSCPVKEANQSTLENFLERLKTIMREKYSKCSS
B3: IL10: classic M2 stimulus (protein, UniProt P22301 19-178, looked up)
Interleukin-10: SPGQGTQSENSCTHFPGNLPNMLRDLRDAFSRVKTFFQMKDQLDNLLLKESLLEDFKGYLGCQALSEMIQFYLEEVMPQAENQDPDIKAHVNSLGENLKTLRLRLRRCHRFLPCENKSKAVEQVKNAFNKLQEKGIYKAMSEFDIFINYIEAYMTMKIRN

Legend:
hMDMs [1] = test: RNA-seq transcriptional response of hMDMs (GSEA, GO enrichment); type: cell-based, human; details: hMDMs, 24 hrs, GSEA
Description: Duplicate hMDM samples were treated with 2 M2-activating and 6 M1-activating compounds as well as IL-4 and IFNγ for 24 hrs. Gene expression levels were measured by RNA-seq separately. GSEA preranked analysis was performed based on the whole genome gene list ranked on gene expression changes using a gene set of 49 transcriptional modules in response to 29 stimuli in hMDMs. bosut.: bosutinib; alster.: alsterpaullone; mocet.: mocetinostat; thios.: thiostrepton; niclo.: niclosamide; chlor.: chlorhexidine; fenb.: fenbendazole; fluvo.: fluvoxamine. […] Duplicate hMDM samples were stimulated with each ligand and analyzed by RNA-seq separately.
DEGs were identified by edgeR at P<0.05 with at least 2 fold-change.
RNAs were extracted with RNeasy MiniElute kit (Qiagen), converted into cDNA and sequenced using Next-Generation Sequencing (Illumina). […] Differential expression analysis was performed using the program edgeR at P<0.05 with a 2 fold-change. The gene expression level across different samples was normalized and quantified using the function of cpm. Differentially expressed genes were annotated using online functional enrichment analysis tool DAVID (http://david.ncifcrf.gov/). Gene set enrichment analysis were performed with GSEA with FDR q-value<0.05.
Fresh hMDMs were treated with compounds at the EC for 24 hours, followed by RNA-seq.

[2] = test system: human monocyte-derived macrophages (hMDMs); test: High throughput phenotypic screen of macrophage activation (cell shape, Z-score); type: cell-based; details: known M1-/M2-activating stimuli;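 also: phalloidin and DAPI stained hMDMs imaged by high-content microscopy, cell eccentricity compared with DMSO control by T-test, round morphology scored negative, elongated positive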
hMDMs [3] = test: Flow cytometry of M1 markers (CD80, CD86) and M2 markers (CD206, CD163) in hMDMs; type: cell-based, human; details: 24 hrs
Description: FIGS. 7A-7B show morphology and phenotypes of activated macrophages. […] The resulting macrophages were polarized to M1 by IFNγ or M2 by IL4. Then, M1 macrophages were treated with M2-type compound bosutinib ([…]) for 24 hrs, and M2 macrophages were treated with M1-type compound thiostrepton ([…]) for 24 hrs. F-actin was stained and images were acquired by fluorescent microscopy with 60× objective. Cell nuclei are stained with DAPI. Representative data were shown from two independent experiments. […] Shown are the representative staining profiles from three independent experiments. The numbers show mean fluorescent intensity (MFI)+/−standard error of the mean (SEM) for n=3 samples per group.
FIGS. 9A-9C show comparison of the differentially expressed genes induced by selected compounds (FIG. 9A), ligands for novel pathways (FIG. 9B), and controls (IL-4 and IFNγ). […] Shown are the changes of the relative mean fluorescence intensity (MFI) to controls. 0.2 refers to 20% MFI increase.
B6 mice were purchased from the Jackson Laboratory and maintained in the animal facility at the Massachusetts Institute of Technology (MIT). NSG mice were purchased from the Jackson Laboratory and maintained under specific pathogen-free conditions in the animal facilities at MIT. […] The data were analyzed by FlowJo. […]

| Molecule | gene expression of TPP modules (#30, #32) (hMDMs [1]) | gene expression of typical M1 modules (#7, #8) (hMDMs [1]) | cell shape induced [2] | expression of M1 markers CD80 and CD86 (hMDMs [3]) | expression of M2 markers CD206 and CD163 (hMDMs [3]) |
| --- | --- | --- | --- | --- | --- |
| B1 | down-regulated | up-regulated |  |  |  |
| B2 |  |  | elongated cell shape | suppressed | up-regulated |
| B3 |  |  | elongated cell shape |  |  |
